Experimental data: patent publication US20090280138A1 (OXFORD BIOMEDICA UK, published 2009)

B1: 5T4 9-mer peptide 205 (peptide)
peptide: PRLTNLSSN
B2: 5T4 9-mer peptide 201 (peptide)
peptide: YRYEINADP
B3: 5T4 9-mer peptide 199 (peptide)
peptide: EGYHYRYEI
B4: 5T4 9-mer peptide 202 (peptide)
peptide: YEINADPRL
B5: 5T4 9-mer peptide 197 (peptide)
peptide: RDHMEGYHY
B6: 5T4 9 mer peptide 23 APFLASAVS (peptide)
peptide: APFLASAVS
notes: also called Peptide No 23
B7: 5T4 9-mer peptide 206 (peptide)
peptide: LTNLSSNSD
B8: 5T4 9-mer peptide 200 (peptide)
peptide: YHYRYEINA
B9: 5T4 9 mer peptide 28 QPPLPDQCP (peptide)
peptide: QPPLPDQCP
notes: also called Peptide No 28
B10: 5T4 9 mer peptide 1 MPGGCSRGP (peptide)
peptide: MPGGCSRGP
notes: also called Peptide No 1
B11: 5T4 9 mer peptide 27 SAQPPLPDQ (peptide)
peptide: SAQPPLPDQ
notes: also called Peptide No 27
B12: 5T4 9-mer peptide 196 (peptide)
peptide: ACRDHMEGY
B13: 5T4 9 mer peptide 8 RLRLARLAL (peptide)
peptide: RLRLARLAL
notes: also called Peptide No 8
B14: 5T4 9-mer peptide 204 (peptide)
peptide: ADPRLTNLS
B15: 5T4 9 mer peptide 31 QCPALCECS (peptide)
peptide: QCPALCECS
notes: also called Peptide No 31
B16: 5T4 9 mer peptide 25 ASAVSAQPP (peptide)
peptide: ASAVSAQPP
notes: also called Peptide No 25
B17: 5T4 9-mer peptide 203 (peptide)
peptide: INADPRLTN
B18: 5T4 9 mer peptide 30 PDQCPALCE (peptide)
peptide: PDQCPALCE
notes: also called Peptide No 30

Key:
[1] = biological target: T1, MHC class I allele A*0101 monomer (human, biotinylated, bound to streptavidin-coated plate); test: iTopia, multiparametric iScore
T1 construct: placeholder peptide and b2M removed, then reconstituted with test peptide and fresh b2M; also called A1; HLA-A1
Procedure: (§1) The 9 mers were tested for Peptide Binding, Off Rate and Affinity using iTopia Epitope Discovery System in accordance with the manufacturer's instructions. Briefly, 96 well microtitre plates coated with MHC molecules representing different MHC alleles are used to identify candidate peptides. […] Determinations are performed in duplicate using an ELISA plate reader and included allele specific positive controls.
(§2) Finally, multiparametric analysis is performed on the results from these assays and an iScore is generated. The iScore represents a measure of the overall quality of peptide-MHC binding, enabling candidate peptides to be ranked in order of binding quality and allowing rational prioritisation of peptides for functional cellular follow-up studies.

[2] = biological target: T2, MHC class I allele A*0301 monomer (human, biotinylated, bound to streptavidin-coated plate); test: iTopia, multiparametric iScore
T2 construct: also called A3; HLA-A3
Procedure: as §1, §2

[3] = biological target: T3, MHC class I allele A*0201 monomer (human, biotinylated, bound to streptavidin-coated plate); test: iTopia, multiparametric iScore
T3 construct: also called A2; HLA-A2
Procedure: as §1, §2

[4] = biological target: T4, MHC class I allele B*0702 monomer (human, biotinylated, bound to streptavidin-coated plate); test: iTopia, multiparametric iScore
T4 construct: also called B7; HLA-B7
Procedure: as §1, §2

[5] = biological target: T5, MHC class I allele B*0702 (bound via biotin to streptavidin-coated plate); test: iTopia peptide binding assay
T5 construct: iTopia MHC class I monomer on the plate; placeholder peptide and b2M removed, then reconstituted with test peptide and fresh b2M; also called B7; HLA B7
Procedure: as §1
(§3) i) Peptide Binding—This assay measures the ability of individual peptides to bind to the MHC molecules under standardized optimal binding conditions. The assay is performed for all the test peptides across the selected MHC alleles. The test peptides identified as “binders” are characterized further in terms of affinity and dissociation experiments.

[6] = biological target: T6, MHC class I allele A*0301 (bound via biotin to streptavidin-coated plate); test: iTopia peptide binding assay
T6 construct: iTopia MHC class I monomer on the plate; placeholder peptide and b2M removed, then reconstituted with test peptide and fresh b2M; also called A3; HLA A3
Procedure: as §1, §3

[7] = biological target: T7, MHC class I allele A*0201 (bound via biotin to streptavidin-coated plate); test: iTopia peptide binding assay
T7 construct: iTopia MHC class I monomer on the plate; placeholder peptide and b2M removed, then reconstituted with test peptide and fresh b2M; also called A2; HLA A2
Procedure: as §1, §3

[8] = biological target: T8, MHC class I allele A*0101 (bound via biotin to streptavidin-coated plate); test: iTopia peptide binding assay
T8 construct: iTopia MHC class I monomer on the plate; placeholder peptide and b2M removed, then reconstituted with test peptide and fresh b2M; also called A1; HLA A1
Procedure: as §1, §3

| Binder | iScore [1] | iScore [2] | iScore [3] | iScore [4] | % of positive control peptide binding [5] [%] | % of positive control peptide binding [6] [%] | % of positive control peptide binding [7] [%] | % of positive control peptide binding [8] [%] |
| --- | --- | --- | --- | --- | --- | --- | --- | --- |
| B1 | 0 | 0 | 0 | 0 |  |  |  |  |
| B2 | 0 | 0 | 0 | 0 |  |  |  |  |
| B3 | 0 | 0 | 0 | 0 |  |  |  |  |
| B4 | 0 | 0 | 0.077 | 0 |  |  |  |  |
| B5 | 0 | 0 | 0 | 0 |  |  |  |  |
| B6 |  |  |  |  | 37 | 0 | 15 | 1 |
| B7 | 0 | 0 | 0.027 | 0 |  |  |  |  |
| B8 | 0 | 0 | 0 | 0 |  |  |  |  |
| B9 |  |  |  |  | 3 | 1 | 5 | 6 |
| B10 |  |  |  |  | 3 | 0 | 9 | 0 |
| B11 |  |  |  |  | 3 | 0 | 13 | 2 |
| B12 | 0 | 0 | 0 | 0 |  |  |  |  |
| B13 |  |  |  |  | 46 | 43 |  | 3 |
| B14 | 0 | 0 | 0 | 0.094 |  |  |  |  |
| B15 |  |  |  |  | 0 | 0 | 2 | 3 |
| B16 |  |  |  |  | 0 | 0 | 5 | 2 |
| B17 | 0 | 0 | 0 | 0 |  |  |  |  |
| B18 |  |  |  |  | 1 | 0 | 3 | 5 |
